Experimental data reported in FireProtDB (doi:10.1002/pro.100).

B1: Prolactin, P01236 (parent)
chain: MNIKGSPWKGSLLLLLVSNLLLCQSVAPLPICPGGAARCQVTLRDLFDRAVVLSHYIHNLSSEMFSEFDKRYTHGRGFITKAINSCHTSSLATPEDKEQAQQMNQKDFLSLIVSILRSWNEPLYHLVTEVRGMQEAPEAILSKAVEIEEQTKRLLEGMELIVSQVHPETKENEIYPVWSGLPSLQMADEESRLSAYYNLLHCLRRDSHKIDNYLKLLKCRIIHNNNC

Variants of: B1
Settings: Homo sapiens, 25 °C, Urea, Fluorescence, Potassium phosphate 25 mM, NaCl 25 mM, reversible: Yes, structure 2Q98, whole UniProt chain shown

Variant | ddG of mutation (higher = less stable) (pH 5.8) | denaturant m value (pH 5.8) | denaturant midpoint (higher = more stable) (pH 5.8) | unfolding free energy (pH 5.8) | ddG of mutation (higher = less stable) (pH 7.8) | denaturant m value (pH 7.8) | denaturant midpoint (higher = more stable) (pH 7.8) | unfolding free energy (pH 7.8)
MNIKGSPWKGSLLLLLVSNLLLCQSVAPLPICPGGAARCQVTLRDLFDRAVVLSHYIHNLSSEMFSEFDKRYTHGRGFITKAINSCHTSSLATPEDKEQAQQMNQKDFLSLIVSILRSWNEPLYHLVTEVRGMQEAPEAILSKAVEIEEQTKRLLEGMELIVSQVHPETKENEIYPVWSGLPSLQMADEESRLSAYYNLLHCLRRDSAKIDNYLKLLKCRIIHNNNC [H208A] | -1.39 kcal/mol | 0.96 kcal/mol/M | 5.94 M | 5.69 kcal/mol | 0.04 kcal/mol | 1.28 kcal/mol/M | 6.36 M | 8.16 kcal/mol
MNIKGSPWKGSLLLLLVSNLLLCQSVAPLPICPGGAARCQVTLRDLFDRAVVLSHYIHNLSSEMFSEFDKRYTHGRGFITKAINSCHTSSLATPEDKEQAQQMNQKDFLSLIVSILRSWNEPLYHLVTEVRGMQEAPEAILSKAVEIEEQTKRLLEGMELIVSQVHPETKENEIYPVWSGLPSLQMADEESRLSAYYNLLHCLRRDSHKIDNYLKLLKCRIIANNNC [H223A] | 0.03 kcal/mol | 0.81 kcal/mol/M | 5.29 M | 4.27 kcal/mol | -0.12 kcal/mol | 1.42 kcal/mol/M | 5.85 M | 8.32 kcal/mol
MNIKGSPWKGSLLLLLVSNLLLCQSVAPLPICPGGAARCQVTLRDLFDRAVVLSAYIANLSSEMFSEFDKRYTHGRGFITKAINSCHTSSLATPEDKEQAQQMNQKDFLSLIVSILRSWNEPLYHLVTEVRGMQEAPEAILSKAVEIEEQTKRLLEGMELIVSQVHPETKENEIYPVWSGLPSLQMADEESRLSAYYNLLHCLRRDSHKIDNYLKLLKCRIIHNNNC [H55A H58A] |  |  |  |  | -1.42 kcal/mol | 1.39 kcal/mol/M | 6.94 M | 9.62 kcal/mol
